Values quoted from earlier work, collected in PMC3264399.

Columns and labels:
CD46 (Homo sapiens) = CD46 (Homo sapiens) (UniProt P15529)
ephrin-B2 (Homo sapiens) = ephrin-B2 (Homo sapiens) (UniProt P52799)
ephrin-B3 (Homo sapiens) = ephrin-B3 (Homo sapiens) (UniProt Q15768)
ephrin-B3 (Homo sapiens), sequence (Q15768 28-340): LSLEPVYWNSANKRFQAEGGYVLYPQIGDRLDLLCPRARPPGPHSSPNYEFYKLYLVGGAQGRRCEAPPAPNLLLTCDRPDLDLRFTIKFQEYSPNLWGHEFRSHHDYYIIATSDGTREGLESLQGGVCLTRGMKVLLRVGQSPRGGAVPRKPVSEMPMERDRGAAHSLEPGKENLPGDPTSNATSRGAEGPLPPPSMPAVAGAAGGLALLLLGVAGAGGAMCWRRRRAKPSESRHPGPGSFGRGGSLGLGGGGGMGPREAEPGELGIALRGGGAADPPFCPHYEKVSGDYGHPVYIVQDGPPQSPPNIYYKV

NiV-G, sequence (Q9IH62 whole entry): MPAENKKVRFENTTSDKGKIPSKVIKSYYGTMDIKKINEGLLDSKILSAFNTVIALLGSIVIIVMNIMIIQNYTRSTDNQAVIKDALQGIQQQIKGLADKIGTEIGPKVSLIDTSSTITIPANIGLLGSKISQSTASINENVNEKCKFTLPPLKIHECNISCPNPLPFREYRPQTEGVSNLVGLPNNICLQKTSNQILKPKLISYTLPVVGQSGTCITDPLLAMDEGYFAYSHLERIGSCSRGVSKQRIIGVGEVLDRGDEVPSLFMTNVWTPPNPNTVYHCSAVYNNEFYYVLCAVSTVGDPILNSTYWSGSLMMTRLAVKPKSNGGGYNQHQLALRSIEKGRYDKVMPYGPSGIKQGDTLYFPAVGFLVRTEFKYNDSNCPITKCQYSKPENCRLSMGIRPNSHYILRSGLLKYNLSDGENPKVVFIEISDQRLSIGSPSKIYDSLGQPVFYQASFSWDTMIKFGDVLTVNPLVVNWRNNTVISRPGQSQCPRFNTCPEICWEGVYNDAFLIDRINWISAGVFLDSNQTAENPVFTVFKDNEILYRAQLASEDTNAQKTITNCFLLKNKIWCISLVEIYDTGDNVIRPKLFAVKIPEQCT
ephrin-B2 (Homo sapiens), sequence (P52799 28-333): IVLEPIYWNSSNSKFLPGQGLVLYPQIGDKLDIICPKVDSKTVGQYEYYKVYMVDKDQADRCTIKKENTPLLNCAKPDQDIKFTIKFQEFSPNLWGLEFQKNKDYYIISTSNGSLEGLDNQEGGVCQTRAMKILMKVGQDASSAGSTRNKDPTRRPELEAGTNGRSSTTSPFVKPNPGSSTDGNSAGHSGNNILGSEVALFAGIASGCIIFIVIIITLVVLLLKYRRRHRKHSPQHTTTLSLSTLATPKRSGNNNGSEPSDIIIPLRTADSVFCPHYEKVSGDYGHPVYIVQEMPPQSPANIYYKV
MeV-H, sequence (P08362 157-607): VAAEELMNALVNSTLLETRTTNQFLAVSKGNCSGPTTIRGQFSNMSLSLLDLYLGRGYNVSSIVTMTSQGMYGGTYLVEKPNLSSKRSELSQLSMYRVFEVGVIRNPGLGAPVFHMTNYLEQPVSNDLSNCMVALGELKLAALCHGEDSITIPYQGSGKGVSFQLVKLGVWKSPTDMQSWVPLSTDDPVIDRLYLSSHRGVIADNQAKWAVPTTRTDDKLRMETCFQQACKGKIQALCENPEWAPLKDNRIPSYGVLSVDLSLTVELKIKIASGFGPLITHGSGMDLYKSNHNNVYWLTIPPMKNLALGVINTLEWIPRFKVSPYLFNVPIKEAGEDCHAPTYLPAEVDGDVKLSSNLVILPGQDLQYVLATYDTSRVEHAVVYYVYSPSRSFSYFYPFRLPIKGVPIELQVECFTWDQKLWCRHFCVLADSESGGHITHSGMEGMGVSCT
CD46 (Homo sapiens), sequence (P15529 35-392): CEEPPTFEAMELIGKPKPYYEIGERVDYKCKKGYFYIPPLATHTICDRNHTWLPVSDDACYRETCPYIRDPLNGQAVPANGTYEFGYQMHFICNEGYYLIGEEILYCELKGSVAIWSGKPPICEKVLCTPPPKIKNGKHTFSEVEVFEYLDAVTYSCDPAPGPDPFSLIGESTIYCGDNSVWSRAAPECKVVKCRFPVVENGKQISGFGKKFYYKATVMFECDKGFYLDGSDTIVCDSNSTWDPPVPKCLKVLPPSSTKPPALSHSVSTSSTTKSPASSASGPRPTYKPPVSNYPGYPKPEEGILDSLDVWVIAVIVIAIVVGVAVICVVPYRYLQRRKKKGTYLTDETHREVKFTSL

Substance: MeV-H (from UniProt P08362)
- Kd (CD46 (Homo sapiens)): 2200 nM

Substance: NiV-G (from UniProt Q9IH62)
- Kd (ephrin-B2 (Homo sapiens)): 0.06 nM
- Kd (ephrin-B3 (Homo sapiens)): 0.58 nM
